Measured values reported in publication doi:10.1101/2020.11.13.381533 (bioRxiv, 2020).
Positions count from the first letter of the chain named. Numbers in names are those of the source.

Biological target: SARS-CoV-2 S receptor-binding domain (RBD), construct for crystallography (SARS-CoV-2, GenBank QHD43416.1 …, UniProt P0DTC2)
Test: crystal structure

B1: C1A-B3 Fab (Fab, V domains shown)
VH: EVQLVESGGGLIQPGGSLRLSCAASGFTVSSNYMSWVRQAPGKGLEWVSVIYSGGTTYYADSVKGRFTISRDNSKNTVFLQMNSLRAEDTAVYYCARGDVSGYRYGLDYWGQGTLVTVS
VL: DIQLTQSPSSLSASVGDRVTITCRASQGISSYLAWYQQKPGKAPKLLIYAASTLQSGVPSRFSGSGSGTDFTLTISSLQPEDFATYYCQQLNSYPGTFGQGTKLEIK
  binding result: binds

B2: C1A-C2 Fab (Fab, V domains shown)
VH: B1 VH with A24V, S31N, V78L, F79Y
VL: B1 VL with S14F, Q27E, K42N, Q55E
  binding result: binds

B3: C1A-F10 Fab (Fab, V domains shown)
VH: B1 VH with V78L, F79Y
VL: B1 VL with Q55E, S56N
  binding result: binds
